Series [1] has as its system MS2 coat protein. The series can be described thus: apparent KD of MS2 coat protein, switch ON state; designed switch direction (-1 OFF switch, 1 ON switch): -1; higher = weaker reporter binding. The following applies: FMN input: 0 or 200 uM; Eterna round: R93 (includes R88 designs). The method, boiled down:
(§1)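 The designed RNA switches were transcribed on-chip from Illumina sequencing clusters. In 100 mM Tris-HCl pH 7.5, 80 mM KCl and 4 mM MgCl2, without or with constant ligand, they were titrated with SNAP-549-labelled MS2 coat protein from 0.7 or 1.5 nM to 3 µM in twofold steps. Apparent KD is the per-design median of normalised cluster binding-curve fits.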

For series [2], the system named is MS2 coat protein. The series can be described thus: apparent KD of MS2 coat protein, switch OFF state (with FMN for OFF switches, without FMN for ON switches); designed switch direction (-1 OFF switch, 1 ON switch): -1; higher = weaker reporter binding. The following applies: FMN input: 0 or 200 uM; Eterna round: R93 (includes R88 designs). A digest of the protocol:
as §1

This note sets out measurements from the supplement of paper PMC9170038.

For the sequence “AAAAAACAUGAGGAUCACCCAUGUGAGGAUAUGCGAAAAUAAAAUAAAAUAAAUAAAAGCAGAAGGCACAAAAA [Mat - Exclusion 1 - Eli mod - D59]”, the “apparent KD of MS2 coat protein” value with MS2 coat protein [1] is 41.1 nM; in the series with MS2 coat protein [2], 43.9 nM.
With “AAAAAACAUGAGGAUCACCCAUGUGAGGAUAUGUAAAAUAAAAUAAAAAUAAAGAAAAGCAGAAGGUAUAUGAA [Amethyst 65]”, the entries for the “apparent KD of MS2 coat protein” value in the series on MS2 coat protein [1] and in the series on MS2 coat protein [2] were 20.4 nM and 23.2 nM, respectively.
Taken in the same sequence, the figures for “AAAAAAGGAGGAUAUACGUACAUGUCAAAAGACGUGAAGGGACAUGAGGAUCACCCAUGUAGAAGGUCUAAAAA [JL Part Open 36]” were 34.5 nM and 17.9 nM.
“AAAAAAGGAGGAUAUACGUACAUGUCGAAAGACGUGAAGGGACAUGAGGAUCACCCAUGUAGAAGGCCUAAAAA [Mat - Exclusion 2 - JL mod - D86]”: the “apparent KD of MS2 coat protein” value came to 34.8 nM with MS2 coat protein [1] and 107 nM in the series on MS2 coat protein [2].
For the sequence “AAAAACCUAGGAUAUACAUGAGGAUCACCCAUGUAAAGAAACAAAAAGGGAAAAACAAGUAGAAGGAGGAAGAA [JR_Exc003_Sub1202]”, the results for the “apparent KD of MS2 coat protein” value with MS2 coat protein [1] and with MS2 coat protein [2] were 16.3 nM and 18.2 nM, respectively.
For the sequence “AAAAAGAUAGGAUAUACGUACAUGUCAAAAGACGUGAAGGGACAUGAGGAUCACCCAUGUAGAAGGAUUAAAAA [JL Wide Open 40]”, the “apparent KD of MS2 coat protein” value turned out to be 31.6 nM in the series with MS2 coat protein [1] and 20.1 nM with MS2 coat protein [2].
For “AAAAAGGCAGGAUAUACGAAACUAAGACAAAUAAGAAAGGGACAUGAGGAUCACCCAUGUAGAAGGGCCAAAAA [Exclusion 2-01... 60% 4]”, the figures for the “apparent KD of MS2 coat protein” value in the series with MS2 coat protein [1] and in the series with MS2 coat protein [2] were 49.1 nM and 70.1 nM, respectively.
Taken in the same sequence, the figures for “AAAAAGGGAGGAUAUACAUGAGGAUCACCCAUGUAAAAAAAAAAAGGAGGGAGGGAAGGUAGAAGGCCCAAAAA [Excls3-IIi]” were 17.7 nM and 24.6 nM.
Turning to “AAAAAGGGAGGAUAUACAUGAGGAUCACCCAUGUAAAAAAAAACAAAAAAAAAAAAAAGUAGAAGGCCCAAAAA [here you go]”, the “apparent KD of MS2 coat protein” value in the series with MS2 coat protein [1] was 52.3 nM; with MS2 coat protein [2] it was 37.5 nM.
Taken in the same sequence, the figures for “AAAAAGGGAGGAUAUACAUGAGGAUCACCCAUGUGAAGGACGAAAAAGAGUCUAAAGGGUAGAAGGCCCAAAAA [65%, Moding Exclusion3-cac2, 11]” were 52.5 nM and 43.4 nM.
The matching figures for “AAAAAGGUAGGAUAUACAUGAGGAUCACCCAUGUAAAUAAAUGGAGAAAAAAACAAUUGUAGAAGGGCCAAAAA [Ex3 Malc#8]”: 39.9 nM and 43.1 nM.
Consider “AAAAAGUCAGGAUAUACGAAAGUGCGAAAGCACAAAAAGAGACAUGAGGAUCACCCAUGUAGAAGGGACAAGAA [Married to this design, 61% 2]”, for which the “apparent KD of MS2 coat protein” value in the series with MS2 coat protein [1] turned out to be 45 nM; with MS2 coat protein [2] it was 17.8 nM.
Consider “AAAAAGUCAGGAUAUGCAGAAAAAAAAACGAAAAAAAAACUGCAGAAGGGACAUGAGGAUCACCCAUGUUAAAA [Ex 4 May 14]”, for which the “apparent KD of MS2 coat protein” value stood at 30.8 nM with MS2 coat protein [1] and 29.8 nM in the series on MS2 coat protein [2].
The matching figures for “AAAAAGUGAGGAUAUGGUAAAAAAAAAAAAAAAAAAAAAAUCCAGAAGGCACAUGAGGAUCACCCAUGUAAAAA [Jolly Cotton - Jieux - Exclusion 4]”: 46.2 nM and 29.7 nM.
With “AAAAAGUGAGGAUAUUCGGAUAGGAAAACGAAAACCUAUCCGAAGAAGGCACAUGAGGAUCACCCAUGUAAAAA [67% Ecls-II - Early G segment 1]”, the “apparent KD of MS2 coat protein” value in the series on MS2 coat protein [1] was 37 nM; with MS2 coat protein [2], 37.6 nM.
Taken in the same sequence, the figures for “AAAAAGUUAGGAUAUACAUGAGGAUCACCCAUGUACAUAAAUGGAGAAAAAAACAGUAGUAGAAGGGACAAAAA [EX2 Malc#11]” were 23.8 nM and 22.2 nM.
Taken in the same sequence, the figures for “AAAAAUGGAGGAUAUACAUGAGGAUCACCCAUGUGAAACAAAACAAAACACAAAAAAAGUAGAAGGCCAAAAAA [Gilly Gone Silly 4 - Jieux - Exclusion 3]” were 33.1 nM and 38.2 nM.
In the case of “AAAAAUGGAGGAUAUACAUGAGGAUCACCCAUGUGUAAAAAAAAUUACACAAAAGAAAGUAGAAGGCCAUAAAA [Ex 3 Warm]”, the “apparent KD of MS2 coat protein” value came to 59.7 nM with MS2 coat protein [1] and 102 nM in the series with MS2 coat protein [2].
In the case of “AAAAAUGGAGGAUAUACAUGAGGAUCACCCAUGUGUAACUAUACUAAGCACAAACCACGUAGAAGGCCAAAAAA [Gilly Gone Silly 11 - Jieux - Exclusion 3]”, the “apparent KD of MS2 coat protein” value with MS2 coat protein [1] came to 51.7 nM; in the series with MS2 coat protein [2], 78.3 nM.
